Data: article PMC6382882

Columns and labels:
[1] = molecular target: mKRb, recombinant fragment spanning the ketoreductase domain from module 7 of MLSB (Mycobacterium ulcerans); assay: ITC; ACP species (1 mM) in the syringe injected into mKRb (50 uM) with 5 mM NADP+ in the cell; 25 mM HEPES, 50 mM NaCl, 0.01% NaN3, pH 7.5, 30 °C; single binding site model; mean of three technical replicates
[2] = molecular target: mKRb, recombinant fragment spanning the ketoreductase domain from module 7 of MLSB (Mycobacterium ulcerans); assay: ITC; ACP species (1 mM) in the syringe injected into mKRb (50 uM) with 5 mM NADPH in the cell; 25 mM HEPES, 50 mM NaCl, 0.01% NaN3, pH 7.5, 30 °C; single binding site model; mean of three technical replicates

| Substance | Kd [1] [nM] | Kd [2] [nM] | stoichiometry N [2] |
| --- | --- | --- | --- |
| apo mACPb, short B1-type ACP domain from module 7 of MLSB (domain or fragment) | 2600 | 2200 | 1 |
| apo mH0ACPa, N-terminally extended A1-type ACP domain from module 5 of MLSA1 (from UniProt Q6MZA4 11087-11185) (domain or fragment) | – | 2200 | – |
| apo mH0ACPb, N-terminally extended B1-type ACP domain from module 7 of MLSB (domain or fragment) | 1380 | 1430 | – |
| holo mACPb, short B1-type ACP domain from module 7 of MLSB with Ppant (domain or fragment) | 610 | 750 | – |
| holo mH0ACPa, N-terminally extended A1-type ACP domain from module 5 of MLSA1 with Ppant (from UniProt Q6MZA4 11087-11185) (domain or fragment) | – | 630 | – |
| holo mH0ACPb, N-terminally extended B1-type ACP domain from module 7 of MLSB with Ppant (domain or fragment) | 710 | 690 | – |
